Molecular target: T1, Wild-type (WT) moesin, P26038
T1 chain: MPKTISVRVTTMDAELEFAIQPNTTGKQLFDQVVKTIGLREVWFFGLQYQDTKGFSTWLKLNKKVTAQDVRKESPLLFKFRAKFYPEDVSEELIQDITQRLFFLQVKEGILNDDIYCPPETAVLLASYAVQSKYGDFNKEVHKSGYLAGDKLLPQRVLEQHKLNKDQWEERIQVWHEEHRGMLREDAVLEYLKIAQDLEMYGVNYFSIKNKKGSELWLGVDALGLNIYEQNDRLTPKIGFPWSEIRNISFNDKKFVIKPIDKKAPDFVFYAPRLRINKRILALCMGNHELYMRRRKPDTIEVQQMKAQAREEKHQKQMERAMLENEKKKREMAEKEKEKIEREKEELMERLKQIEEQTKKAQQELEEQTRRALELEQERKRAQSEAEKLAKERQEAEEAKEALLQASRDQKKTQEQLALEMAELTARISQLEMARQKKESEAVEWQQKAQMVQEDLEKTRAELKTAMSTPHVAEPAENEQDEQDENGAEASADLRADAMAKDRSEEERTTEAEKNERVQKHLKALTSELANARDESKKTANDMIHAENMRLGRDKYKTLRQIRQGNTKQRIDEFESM
Assay: AUC
Conditions: remark: other sources report otherwise

percent of the protein as dimers: 29 to 31%
B1: Wild-type (WT) moesin, P26038 1-577 (natural protein)
chain: T1 chain
